The target in data set [1] is Fibroblast growth factor receptor (human (endogenous in MCF-7)) (UniProt P11362). The experiment in a line: Western blot of cell lysates for the receptor dimer. Background: Immunoblotting shows a protein as a band on a membrane.
Substrate in the data set “purified protein”: CC(=O)N[C@H]1[C@H]([C@H](O)[C@H](O)CO)O[C@](OP(=O)(O)OC[C@H]2O[C@@H](n3ccc(N)nc3=O)[C@H](O)[C@@H]2O)(C(=O)O)C[C@@H]1O
Briefly: purified protein. The conditions noted are these: donor substrate; acceptor type II LacNAc.

The molecule “Fibroblast growth factor receptor (from UniProt P11362 22-822)” came in with a stoichiometry N in data set [1] of 2.

B1: recombinant human ST3Gal-IV (α2,3-sialyltransferase) (Homo sapiens) (protein)
chain: REDRYIELFYFPIPEKKEPCLQGEAESKASKLFGNYSRDQPIFLRLEDYFWVKTPSAYELPYGTKGSEDLLLRVLAITSSSIPKNIQSLRCRRCVVVGNGHRLRNSSLGDAINKYDVVIRLNNAPVAGYEGDVGSKTTMRLFYPESAHFDPKVENNPDTLLVLVAFKAMDFHWIETILSDKKRVRKGFWKQPPLIWDVNPKQIRILNPFFMEIAADKLLSLPMQQPRKIKQKPTTGLLAITLALHLCDLVHIAGFGYPDAYNKKQTIHYYEQITLKSMAGSGHNVSQEALAIKRMLEMGAIKNLTSF
Regarding B1, the Km in the data set “purified protein” turned out to be 73.4 µM.

The term stoichiometry N denotes the number of molecules, sites or subunits per partner or assembly. The Km is the concentration of substrate that gives half-maximal velocity.

The values are drawn from paper PMC5779621.
